Consider one molecule from patent publication US20220356230A1 (published 2022).

This experiment addresses SARS-CoV-2 spike protein (S-wt, Wuhan-Hu-1, NCBI Accession Number MN908947.3) on VSV-SARS-CoV-2-S … (SARS-CoV-2, UniProt P0DTC2 14-1273). As to the kind of experiment: cell-based or functional assay.

B1: mAb10986 (antibody, V domains shown)
VH: EVQLVESGGGLVQPGGSLRLSCAASEFTVSSNYMSWVRQAPGKGLEWVSVIYSGGSTFYADSVKGRFTISRDNSKNTLYLQMNSLRAEDTAVYYCARALPYGDLHFDYWGQGTLVTVSS
VL: QSVLTQPPSVSGAPGQRVTISCTGSSSNIGTGYDVHWYQQLPGTAPKLLIYGNTNRPSGVPDRFSGSKSGTSASLAITGLQAEDEADYYCQSYDSSLSDSYVFGTGTKVTVLG
For B1, the “mAb neutralization potency (IC50 (M))” value was found to be 9.91e-11 M.
